{"source": "paper PMC8576073", "about": "“Ultra pH‐sensitive detection of total and free prostate‐specific antigen using electrochemical aptasensor based on reduced graphene oxide/gold nanoparticles emphasis on TiO2/carbon quantum dots as a r”", "binders": {"B1": {"name": "thiolated PSA binding DNA aptamer (ssDNA)", "DNA": "TTTTTTTTTTATTAAAGCTCGCCATCAAATAGCTGC", "modifications": "5'-HS (thiol)"}}, "biological_target": "prostate-specific antigen (PSA) (human, UniProt P07288 25-261)", "sequence (P07288 25-261)": "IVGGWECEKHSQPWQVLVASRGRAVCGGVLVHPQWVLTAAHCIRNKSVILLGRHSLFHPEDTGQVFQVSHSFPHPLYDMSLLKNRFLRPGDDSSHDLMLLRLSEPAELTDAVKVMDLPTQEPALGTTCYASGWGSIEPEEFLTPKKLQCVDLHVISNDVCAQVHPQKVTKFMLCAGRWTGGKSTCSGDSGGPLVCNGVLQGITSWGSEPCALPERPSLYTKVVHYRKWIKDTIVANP", "test": "electrochemical aptasensor (CV, SWV, EIS); ferrocyanide or TiO2/CQDs redox probe; 30 min binding; detection 0.5-7 ng/ml; LOD is not a Kd; Aptamer electrode washed with 0.1 mol/L PBS pH 7.0; PSA 30 min; 1.0 mM K3/K4[Fe(CN)6] (1:1), or TiO2/CQDs electrolyte at pH 5.4 and pH 8; temperature not stated", "details": "protein: commercial"}
{"binder": "B1", "values": [{"measurement": "binding result", "result": "binds"}]}
